# Patent publication US20110287512
# Legend:
# [1] = test system: ZFN7264 (host) (artificial); experiment: cell_activity; conditions: yeast, paired with 7263 ZFN
# [2] = test system: ZFN7264 linker 1e center linker F2-F3 TGSQKP replaced by TVPRPTPPKP (artificial); experiment: cell_activity; conditions: normalized yeast MEL-1 score, with invariant 7263 ZFN partner
# [3] = test system: ZFN7264 linker TGGGGSQKP (artificial); experiment: cell_activity; conditions: yeast, paired with 7263 ZFN
# [4] = test system: ZFN7264 linker TGLPKPKP (artificial); experiment: cell_activity; conditions: yeast, paired with 7263 ZFN
# [5] = test system: ZFN7264 linker TSRPRPKP (artificial); experiment: cell_activity; conditions: yeast, paired with 7263 ZFN
# [6] = test system: ZFP8196 (host, center linker TGEKP) (artificial)
# [7] = test system: ZFP8196 linker 1c (artificial)
# [8] = test system: ZFP8196 linker 1d (artificial)
# [9] = test system: ZFP8196 linker 1f (artificial)
# [10] = test system: ZFP8196 linker LRQKDERP (artificial)
# [11] = test system: ZFP8196 linker TCPRPPTRKP (artificial)
# [12] = test system: ZFP8196 linker TEPRAKPPKP (artificial)
# [13] = test system: ZFP8196 linker TGEGGKP (artificial)
# [14] = test system: ZFP8196 linker TGGGGSQKP (artificial)
# [15] = test system: ZFP8196 linker TGYSIPRPKP (artificial)
# [16] = test system: ZFP8196 linker TPDAPKPKP (artificial)
# [17] = test system: ZFP8196 linker TPDRPISTCKP (artificial)
# [18] = test system: ZFP8196 linker TPGLHRPKP (artificial)
# [19] = test system: ZFP8196 linker TPSHTPRPKP (artificial)
# [20] = test system: ZFP8196 linker TSPRLPAPKP (artificial)
# [21] = test system: ZFP8196 linker TSSPRSNAKP (artificial)
# [22] = test system: ZFP8196 linker TVSPAPCRSKP (artificial)
# [23] = test system: ZFP7264 (host, center linker TGSQKP) (artificial)
# [24] = test system: ZFP7264 linker 1e (artificial)
# [25] = test system: ZFP7264 linker LRQKDERP (artificial)
# [26] = test system: ZFP7264 linker TGEGGKP (artificial)
# [27] = test system: ZFP7264 linker TGGGGSQKP (artificial)
# [28] = test system: ZFP7264 linker TGLPKPKP (artificial)
# [29] = test system: ZFP7264 linker TKHGTPKHREDKP (artificial)
# [30] = test system: ZFP7264 linker TLPLPRPKP (artificial)
# [31] = test system: ZFP7264 linker TLPPCFRPKP (artificial)
# [32] = test system: ZFP7264 linker TSRPRPKP (artificial)
# [33] = test system: ZFP8196 (host, center linker TGEKP) (artificial); experiment: ELONA; conditions: ELISA normalized to host on 0-bp gap target (reference)
# [34] = test system: ZFP8196 linker 1c center linker F2-F3 TGEKP replaced by THPRAPIPKP (artificial); experiment: ELONA; conditions: normalized ELISA score
# [35] = test system: ZFP8196 linker 1d center linker F2-F3 TGEKP replaced by TPNRRPAPKP (artificial); experiment: ELONA; conditions: normalized ELISA score
# [36] = test system: ZFP8196 linker 1f center linker F2-F3 TGEKP replaced by TYPRPIAAKP (artificial); experiment: ELONA; conditions: normalized ELISA score
# [37] = test system: ZFP8196 linker 2d center linker F2-F3 TGEKP replaced by TLAPRPYRPPKP (artificial); experiment: ELONA; conditions: normalized ELISA score
# [38] = test system: ZFP8196 linker 2e center linker F2-F3 TGEKP replaced by TPGGKSSRTDRNKP (artificial); experiment: ELONA; conditions: normalized ELISA score
# [39] = test system: ZFP8196 linker 2f center linker F2-F3 TGEKP replaced by TPNPHRRTDPSHKP (artificial); experiment: ELONA; conditions: normalized ELISA score
# [40] = test system: ZFP8196 linker LRQKDERP center linker F2-F3 TGEKP replaced by LRQKDERP (artificial); experiment: ELONA; conditions: normalized ELISA score
# [41] = test system: ZFP8196 linker LRQKDGGGSERP (Kim, Pabo) center linker F2-F3 TGEKP replaced by LRQKDGGGSERP (artificial); experiment: ELONA; conditions: normalized ELISA score
# [42] = test system: ZFP8196 linker TASCPRPFRPPKP center linker F2-F3 TGEKP replaced by TASCPRPFRPPKP (artificial); experiment: ELONA; conditions: normalized ELISA score
# [43] = test system: ZFP8196 linker TCPRPPTRKP center linker F2-F3 TGEKP replaced by TCPRPPTRKP (artificial); experiment: ELONA; conditions: normalized ELISA score
# [44] = test system: ZFP8196 linker TEPRAKPPKP center linker F2-F3 TGEKP replaced by TEPRAKPPKP (artificial); experiment: ELONA; conditions: normalized ELISA score
# [45] = test system: ZFP8196 linker TETTRPFRPPKP center linker F2-F3 TGEKP replaced by TETTRPFRPPKP (artificial); experiment: ELONA; conditions: normalized ELISA score
# [46] = test system: ZFP8196 linker TGEARPYRPPKP center linker F2-F3 TGEKP replaced by TGEARPYRPPKP (artificial); experiment: ELONA; conditions: normalized ELISA score
# [47] = test system: ZFP8196 linker TGEGGKP center linker F2-F3 TGEKP replaced by TGEGGKP (artificial); experiment: ELONA; conditions: normalized ELISA score
# [48] = test system: ZFP8196 linker TGGGGSGGSQKP (flexible) center linker F2-F3 TGEKP replaced by TGGGGSGGSQKP (artificial); experiment: ELONA; conditions: normalized ELISA score
# [49] = test system: ZFP8196 linker TGGGGSQKP center linker F2-F3 TGEKP replaced by TGGGGSQKP (artificial); experiment: ELONA; conditions: normalized ELISA score
# [50] = test system: ZFP8196 linker TGSLRPYRRPKP center linker F2-F3 TGEKP replaced by TGSLRPYRRPKP (artificial); experiment: ELONA; conditions: normalized ELISA score
# [51] = test system: ZFP8196 linker TGYSIPRPKP center linker F2-F3 TGEKP replaced by TGYSIPRPKP (artificial); experiment: ELONA; conditions: normalized ELISA score
# [52] = test system: ZFP8196 linker TNTTRPYRPPKP center linker F2-F3 TGEKP replaced by TNTTRPYRPPKP (artificial); experiment: ELONA; conditions: normalized ELISA score
# [53] = test system: ZFP8196 linker TPDAPKPKP center linker F2-F3 TGEKP replaced by TPDAPKPKP (artificial); experiment: ELONA; conditions: normalized ELISA score
# [54] = test system: ZFP8196 linker TPDRPISTCKP center linker F2-F3 TGEKP replaced by TPDRPISTCKP (artificial); experiment: ELONA; conditions: normalized ELISA score
# [55] = test system: ZFP8196 linker TPGLHRPKP center linker F2-F3 TGEKP replaced by TPGLHRPKP (artificial); experiment: ELONA; conditions: normalized ELISA score
# [56] = test system: ZFP8196 linker TPSHTPRPKP center linker F2-F3 TGEKP replaced by TPSHTPRPKP (artificial); experiment: ELONA; conditions: normalized ELISA score
# [57] = test system: ZFP8196 linker TSINRPFRRPKP center linker F2-F3 TGEKP replaced by TSINRPFRRPKP (artificial); experiment: ELONA; conditions: normalized ELISA score
# [58] = test system: ZFP8196 linker TSPRLPAPKP center linker F2-F3 TGEKP replaced by TSPRLPAPKP (artificial); experiment: ELONA; conditions: normalized ELISA score
# [59] = test system: ZFP8196 linker TSSPRSNAKP center linker F2-F3 TGEKP replaced by TSSPRSNAKP (artificial); experiment: ELONA; conditions: normalized ELISA score
# [60] = test system: ZFP8196 linker TVSPAPCRSKP center linker F2-F3 TGEKP replaced by TVSPAPCRSKP (artificial); experiment: ELONA; conditions: normalized ELISA score
sequence,measurement,setting,value
AAAGCGGCTCCG (double strand) [7264 yeast half-site 0-bp gap],activity (normalized MEL-1),[1],1
same,activity,[2],0.08
same,activity (normalized MEL-1),[3],0.28
same,activity (normalized MEL-1),[4],0.04
same,activity (normalized MEL-1),[5],0.08
TTAGATAAACTGACCAAAAGGCTATC (double strand) [8196 target gap AC],binding signal (normalized ELISA),[6],0
same,binding signal (normalized ELISA),[7],0
same,binding signal (normalized ELISA),[8],0.01
same,binding signal (normalized ELISA),[9],0
same,binding signal (normalized ELISA),[10],0
same,binding signal (normalized ELISA),[11],0
same,binding signal (normalized ELISA),[12],0.01
same,binding signal (normalized ELISA),[13],0
same,binding signal (normalized ELISA),[14],0
same,binding signal (normalized ELISA),[15],0
same,binding signal (normalized ELISA),[16],0
same,binding signal (normalized ELISA),[17],0.01
same,binding signal (normalized ELISA),[18],0
same,binding signal (normalized ELISA),[19],0.01
same,binding signal (normalized ELISA),[20],0
same,binding signal (normalized ELISA),[21],0
same,binding signal (normalized ELISA),[22],0
TTAGTTAAAGCGCTGCTCCGAATATC (double strand) [7264 target gap CT],binding signal (normalized ELISA),[23],0
same,binding signal (normalized ELISA),[24],0.06
same,binding signal (normalized ELISA),[25],0.02
same,binding signal (normalized ELISA),[26],0.03
same,binding signal (normalized ELISA),[27],0.07
same,binding signal (normalized ELISA),[28],0.02
same,binding signal (normalized ELISA),[29],0
same,binding signal (normalized ELISA),[30],0.03
same,binding signal (normalized ELISA),[31],0.05
same,binding signal (normalized ELISA),[32],0.03
TTAGTTAAAGCGTAGCTCCGAATATC (double strand) [7264 target gap TA],binding signal (normalized ELISA),[23],0
same,binding signal (normalized ELISA),[24],0.05
same,binding signal (normalized ELISA),[25],0.02
same,binding signal (normalized ELISA),[26],0.02
same,binding signal (normalized ELISA),[27],0.03
same,binding signal (normalized ELISA),[28],0.02
same,binding signal (normalized ELISA),[29],0
same,binding signal (normalized ELISA),[30],0.03
same,binding signal (normalized ELISA),[31],0.06
same,binding signal (normalized ELISA),[32],0.03
TTAGATAAACTGCAAAAGGCTATC (double strand) [8196 target 0-bp gap],binding signal,[33],1
same,binding signal,[34],0
same,binding signal,[35],0
same,binding signal,[36],0.01
same,binding signal,[37],0.005
same,binding signal,[38],0.005
same,binding signal,[39],0.003
same,binding signal,[40],0.01
same,binding signal,[41],0.01
same,binding signal,[42],0.01
same,binding signal,[43],0
same,binding signal,[44],0.01
same,binding signal,[45],0.001
same,binding signal,[46],0.001
same,binding signal,[47],0.1
same,binding signal,[48],0.019
same,binding signal,[49],0
same,binding signal,[50],0.001
same,binding signal,[51],0.01
same,binding signal,[52],0.001
same,binding signal,[53],0.02
same,binding signal,[54],0.01
same,binding signal,[55],0.04
same,binding signal,[56],0.02
same,binding signal,[57],0.01
same,binding signal,[58],0.01
same,binding signal,[59],0.01
same,binding signal,[60],0.01
